US20070178098A1 (Merck KGaA, published 2007)

T1: human IL-6Ralpha (human, UniProt P08887 20-358, limits assumed)
T1 construct: also called IL-6Ralpha alone
T1 sequence (looked up): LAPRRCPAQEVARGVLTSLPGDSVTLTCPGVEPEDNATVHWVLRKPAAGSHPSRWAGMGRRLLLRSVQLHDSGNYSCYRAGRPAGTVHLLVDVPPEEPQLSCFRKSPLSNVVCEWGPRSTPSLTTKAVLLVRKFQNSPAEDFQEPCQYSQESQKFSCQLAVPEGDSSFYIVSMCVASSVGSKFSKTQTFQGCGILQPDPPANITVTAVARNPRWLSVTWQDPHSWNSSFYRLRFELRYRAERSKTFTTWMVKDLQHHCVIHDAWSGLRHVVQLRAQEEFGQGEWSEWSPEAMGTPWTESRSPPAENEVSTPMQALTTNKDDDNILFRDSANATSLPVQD

T2: Fc-IL6 (human IL-6; mouse Fc)
T2 construct: also called Mature Fc-IL6
T2 chain: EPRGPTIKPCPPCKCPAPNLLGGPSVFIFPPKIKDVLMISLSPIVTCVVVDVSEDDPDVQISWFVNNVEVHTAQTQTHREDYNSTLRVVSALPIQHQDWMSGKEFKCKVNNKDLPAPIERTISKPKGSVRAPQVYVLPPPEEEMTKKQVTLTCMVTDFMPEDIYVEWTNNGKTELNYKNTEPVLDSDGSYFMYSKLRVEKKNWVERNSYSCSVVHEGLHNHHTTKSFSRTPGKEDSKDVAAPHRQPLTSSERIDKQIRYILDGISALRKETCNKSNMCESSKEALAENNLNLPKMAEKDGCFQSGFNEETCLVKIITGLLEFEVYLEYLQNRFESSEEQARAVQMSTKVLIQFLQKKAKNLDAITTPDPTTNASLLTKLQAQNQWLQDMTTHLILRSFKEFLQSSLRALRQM


Experiments:
human IL-6 [1] = biological target: T3, human IL-6 (human, UniProt P05231 30-212); assay: Biacore, antibody immobilized on chip, IL-6 passed over
T3 construct: The Biacore text says only 'IL-6 protein'; also called interleukin-6; IL-6 protein
Method: The antibodies were immobilized on a chip; IL-6 protein was passed over the chip, and on-rates and off-rates were measured.

Fc-IL6Ralpha-IL6 [2] = biological target: T4, Fc-IL6Ralpha-IL6 (human IL-6Ralpha and IL-6; mouse Fc); assay: plate binding assay read as OD450, antibody titrated on Fc-IL6Ralpha-IL6
T4 construct: Fusion of a mouse IgG gamma2a Fc, the extracellular domains of human IL-6Ralpha and human IL-6; also called Fc-IL6Ralpha-IL6 fusion protein; muFc-IL6Ralpha-IL6

human IL-6Ralpha = biological target: T1, human IL-6Ralpha; assay: plate binding assay read as OD450, antibody titrated on IL6Ralpha alone
human IL-6 [3] = biological target: T3, human IL-6; assay: plate binding assay read as OD450, antibody titrated on IL6 (form of the coated IL-6 not given for this figure)
Fc-IL6Ralpha-IL6 [4] = biological target: T4, Fc-IL6Ralpha-IL6; assay: competition assay: antibody titrated, inhibition of the binding of Fc-IL6Ralpha-IL6 to gp130-Fc; half of the antibody's own maximal inhibition
Method: To further characterize the antibodies that recognize IL-6, the following competition tests were performed. First, the ability of the monoclonal antibodies to inhibit the interaction between Fc-IL6Ralpha-IL6 and gp130-Fc was tested. The inhibition assays were performed based on the methods described by Scheller et al. J. Immuno. Methods, 291:93-100 (2004), the teachings of which are hereby incorporated by reference. […] Second, inhibition of the interaction between Fc-IL6 and Fc-IL6Ralpha by the antibodies was tested.

Fc-IL6 = biological target: T2, Fc-IL6; assay: binding to immobilized Fc-IL6 (screen of paragraph 73)
Fc-IL6Ralpha-IL6 [5] = biological target: T4, Fc-IL6Ralpha-IL6; assay: cell-based or functional assay

Kd (human IL-6 [1]) [nM]	koff (human IL-6 [1]) [s⁻¹]	kon (human IL-6 [1]) [M⁻¹ s⁻¹]	EC50 (read off the curve) (Fc-IL6Ralpha-IL6 [2]) [ng/mL]	binding result (human IL-6Ralpha)	EC50 (read off the curve) (human IL-6 [3]) [ng/mL]	IC50 (read off the curve) (Fc-IL6Ralpha-IL6 [4]) [ng/mL]	binding result (Fc-IL6)	haptoglobin level in mice given muFc-IL6Ralpha-IL6, relative to the positive control group at 24 hours (Fc-IL6Ralpha-IL6 [5]) [%]	Binder
0.047 to 0.106	0.00012 to 0.00026	2.5e+06 to 2.6e+06	~6	no binding (tested: 1 ug/ml)	~5	~200	binds	–	Mab#476 (antibody, V domains shown, Mouse IgG monoclonal from a hybridoma; V regions were amplified with primers specific for mouse IgG gamma1 VH and Vk; also called antibody 476) VH: EVKLEESGGGLVQPGGSMKLSCAASGFTFSDAWMDWVRQSPEKGLEWVAEIRSKANNHATYYAESVKGRFTISRDDSKSSVYLQMNSLRAEDTGIYYCTTPTLYGAMDYWGQGTSVTVSA VL: not shown
2	0.0048	2.4e+06	~4	no binding (tested: 1 ug/ml)	~4	~100	binds	–	Mab#195 (antibody, V domains shown, Mouse IgG monoclonal from a hybridoma; V regions were amplified with primers specific for mouse IgG gamma1 VH and Vk; also called antibody 195) VH: EVKLEESGGGLVQPGGSMKLSCVASGFTFSNYWMNWVRQSPEKGLEWVAEIRLKSNNYATHYAESVKGRFTISRDDSKSSVYLQMNNLRAEDTGIYYCTREDYYGYPDYWGQGTTLTVSS VL: not shown
0.135	0.00011	800000	~3	no binding (tested: 1 ug/ml)	~3	~200	binds	–	Mab#309 (antibody, V domains shown, Mouse IgG monoclonal from a hybridoma; V regions were amplified with primers specific for mouse IgG gamma1 VH and Vk; also called antibody 309) VH: EVKLEESGGGLVQPGGSMKLSCVASGFTFSNYWMNWVRQSPEKGLEWVAEIRLKSNKGATHYAESVKGRFTISRDDSKSSVYLQMNNLRAEDTGIYYCASLLYDGYLHWGQGTLVTVSA VL: not shown
0.0075	1.4e-05	1.8e+06	~3	no binding (tested: 1 ug/ml)	~5	~200	binds	~30	Mab#471 (antibody, V domains shown, Mouse IgG monoclonal from a hybridoma; V regions were amplified with primers specific for mouse IgG gamma1 VH and Vk) VH: EVKFEESGGGLVQPGGSMKLSCVASGFSFSNYWMNWVRQSPEKGLEWVAEIRLTSNKQAIYYAESVKGRFTISRDDSKSSVYLQMNNLRAEDTGIYYCASLFYDGYLHWGQGTLVTVSA VL: not shown
